Assay results published in US20140120109A1 (Regeneron, published 2014).
Residue numbers refer to the chain shown, from its start. Names and notes keep the numbering of the source. Blank lines part the entries; values can stand above or below the binder they belong to.

Tests used:
[1] = molecular target: T1, human TL1A, soluble, CHO-expressed, residues 72-251 of SEQ ID NO:244 with N-terminal His6-tag (human, UniProt O95150 72-251); assay: ELISA, blocks hTL1A (150 pM) binding hDR3-Fc
T1 construct: also called hTL1A; hTL1A (CHO)
T1 sequence: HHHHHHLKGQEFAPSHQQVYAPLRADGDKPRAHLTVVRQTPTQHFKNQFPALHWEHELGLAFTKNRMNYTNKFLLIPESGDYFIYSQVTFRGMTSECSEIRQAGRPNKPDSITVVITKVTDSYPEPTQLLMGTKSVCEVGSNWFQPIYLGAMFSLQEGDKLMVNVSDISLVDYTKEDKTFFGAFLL
Experimental: (§1) The ability of antibodies to block human TL1A binding to its cognate receptors, the DR3 and DcR3 receptors, was measured using a competition sandwich ELISA. In addition, blocking of a human TL1A variant FHM (human TL1A Q167R) and the cynomolgus monkey (Macaca fascicularis) TL1A (MfTL1A) protein binding to the human DR3 or DcR3 receptors was measured in the same manner. Constant amounts of biotinylated human TL1A or FHM (both expressed with a 6-His tag in CHO cells) or biotinylated MfTL1A (expressed in CHO cells) were separately titrated with varying amounts of antibodies. The antibody-protein complexes were incubated in solution (1 hr, 25° C.) and then transferred to microtiter plates coated with human DR3 (hDR3) or human DcR3 (hDcR3) expressed as human IgG1 Fc fusion proteins. After one hour at 25° C. the wells were washed, and bound human or monkey TL1A was detected with streptavidin conjugated with horseradish peroxidase (HRP). Wells were developed with a TMB solution to produce a colorimetric reaction and quenched with aqueous sulfuric acid before reading absorbance at 450 nm on a Perkin-Elmer Victor X5 plate reader. A sigmoidal dose-response curve was fit to the data using the Prism™ data analysis package. […] Both fully human anti-hTL1A mAbs and comparator antibodies, i.e., control mAb1 (an anti-hTL1A antibody with heavy and light chain variable domains having the amino acid sequences corresponding to SEQ ID NOS:21 and 27, respectively, of US 2009/0280116) and control mAb3 (an anti-hTL1A antibody with heavy and light chain variable domains having the amino acid sequences corresponding to SEQ ID NOS:57 and 48, respectively, of US 2009/0280116), were included in the study. NB: No binding under the conditions tested; NT: Not tested. Concentrations of biotinylated soluble ligands: (1) 150 pM; (2) 500 pM; (3) 10 pM; and (4) 50 pM.

[2] = molecular target: T1, human TL1A, soluble, CHO-expressed, …; assay: ELISA, blocks hTL1A (10 pM) binding hDcR3-Fc
Experimental: as §1

[3] = molecular target: T2, cynomolgus monkey TL1A, soluble, CHO-expressed, residues 72-251 of SEQ ID NO:248 with N-terminal His6-tag (cynomolgus monkey (Macaca fascicularis), UniProt O95150 72-251 (human entry)); assay: ELISA, blocks MfTL1A (500 pM) binding hDR3-Fc
T2 construct: also called MfTL1A; MfTL1A (CHO)
T2 chain: T1 sequence with F45L, I84V
Experimental: as §1

[4] = molecular target: T2, cynomolgus monkey TL1A, soluble, …; assay: ELISA, blocks MfTL1A (50 pM) binding hDcR3-Fc
Experimental: as §1

[5] = molecular target: T3, mouse TL1A, soluble, E. coli-expressed, residues 76-252 of SEQ ID NO:250 (mouse, UniProt Q5UBV8 76-252); assay: SPR 25C, steady state
T3 construct: with or without N-terminal Met; also called mTL1A (E. Coli)
T3 sequence: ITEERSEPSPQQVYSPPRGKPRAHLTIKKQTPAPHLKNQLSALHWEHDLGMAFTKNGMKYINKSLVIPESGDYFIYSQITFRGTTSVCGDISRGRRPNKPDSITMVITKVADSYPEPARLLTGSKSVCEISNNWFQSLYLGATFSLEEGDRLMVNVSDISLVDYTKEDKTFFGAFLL
Experimental: Measurements were conducted on a T100 BIACORE™ instrument. […] Kinetic association (kₐ) and dissociation (kd) rate constants were determined by fitting the data to a 1:1 binding model using BIAevaluation 4.1 curve fitting software (BIAcore Life Sciences). Molar concentrations of TL1A/Fhm used in the data fitting assumed a monomeric state for TL1A in solution. […]

[6] = molecular target: T4, Fhm, hTL1A(Q167R), soluble, CHO-expressed, residues 72-251 of SEQ ID NO:246 (human, UniProt O95150 72-251); assay: ELISA, blocks FHM (10 pM) binding hDcR3-Fc; blocking of FHM binding to DcR3
T4 construct: also called Fhm (CHO); FHM (CHO)
T4 chain: T1 sequence with Q102R
Experimental: as §1

[7] = molecular target: T5, cynomolgus monkey TL1A, soluble, E. coli-expressed, residues 72-251 of SEQ ID NO:248 (cynomolgus monkey (Macaca fascicularis), UniProt O95150 72-251 (human entry)); assay: SPR 37C, mAb captured
T5 construct: with or without N-terminal Met; also called MfTL1A (E. Coli)
T5 chain: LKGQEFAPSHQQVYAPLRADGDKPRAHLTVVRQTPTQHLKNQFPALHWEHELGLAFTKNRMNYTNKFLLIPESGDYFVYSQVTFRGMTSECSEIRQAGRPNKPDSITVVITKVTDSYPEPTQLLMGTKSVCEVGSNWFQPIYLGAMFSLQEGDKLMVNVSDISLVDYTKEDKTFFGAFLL
Experimental: (§2) Measurements were conducted on a T100 BIACORE™ instrument. […] Kinetic association (kₐ) and dissociation (kd) rate constants were determined by fitting the data to a 1:1 binding model using BIAevaluation 4.1 curve fitting software (BIAcore Life Sciences). Molar concentrations of TL1A/Fhm used in the data fitting assumed a monomeric state for TL1A in solution. Binding dissociation equilibrium constants (KD) and dissociative half-lives (t_{1/2}) were calculated from the kinetic rate constants as: KD (M)=kd/kₐ; and t_{1/2} (min)=[In2/(60*kd)].

[8] = molecular target: T6, Fhm, hTL1A(Q167R), soluble, E. coli-expressed, residues 72-251 of SEQ ID NO:246 (human, UniProt O95150 72-251); assay: SPR 25C, mAb captured
T6 construct: with or without N-terminal Met
T6 chain: T5 chain with L39F, V78I, Q96R
Experimental: as §2

[9] = molecular target: T5, cynomolgus monkey TL1A, soluble, E. …; assay: SPR 25C, mAb captured
Experimental: as §2

[10] = molecular target: T4, Fhm, hTL1A(Q167R), soluble, …; assay: ELISA, blocks FHM (150 pM) binding hDR3-Fc
Experimental: as §1

[11] = molecular target: T4, Fhm, hTL1A(Q167R), soluble, …; assay: ELISA, blocks FHM (10 pM) binding hDcR3-Fc
Experimental: as §1

[12] = molecular target: T7, human DR3, full-length, expressed on HEK293 NFkB-luciferase reporter cells (human, UniProt Q93038 25-417); assay: cell-based or functional assay
T7 sequence: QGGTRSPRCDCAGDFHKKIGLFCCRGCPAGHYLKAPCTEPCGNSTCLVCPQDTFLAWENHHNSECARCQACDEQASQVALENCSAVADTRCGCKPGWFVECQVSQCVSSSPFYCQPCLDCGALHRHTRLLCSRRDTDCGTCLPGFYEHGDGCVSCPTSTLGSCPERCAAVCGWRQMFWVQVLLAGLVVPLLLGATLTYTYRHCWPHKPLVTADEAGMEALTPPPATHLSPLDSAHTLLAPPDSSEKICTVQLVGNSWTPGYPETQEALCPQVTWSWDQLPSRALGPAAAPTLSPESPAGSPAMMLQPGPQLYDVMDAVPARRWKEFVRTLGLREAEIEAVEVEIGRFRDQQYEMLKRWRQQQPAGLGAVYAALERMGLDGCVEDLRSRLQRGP

EC50 (cells), NFkB-luciferase reporter [12]: 23500 cells
B4: full length human TL1A expressed on HEK293 cells (ligand)
chain: MAEDLGLSFGETASVEMLPEHGSCRPKARSSSARWALTCCLVLLPFLAGLTTYLLVSQLRAQGEACVQFQALKGQEFAPSHQQVYAPLRADGDKPRAHLTVVRQTPTQHFKNQFPALHWEHELGLAFTKNRMNYTNKFLLIPESGDYFIYSQVTFRGMTSECSEIRQAGRPNKPDSITVVITKVTDSYPEPTQLLMGTKSVCEVGSNWFQPIYLGAMFSLQEGDKLMVNVSDISLVDYTKEDKTFFGAFLL

EC50 (cells), NFkB-luciferase reporter [12]: 8460 cells
B5: full-length cynomolgus monkey TL1A expressed on HEK293 cells (ligand)
chain: B4 chain with R34C, F69L, A71D, F110L, I149V

EC50 (cells), NFkB-luciferase reporter [12]: 47900 cells
B6: full-length Fhm, human TL1A(Q167R), expressed on HEK293 cells (ligand)
chain: B4 chain with Q167R

Further lines, the binder ahead of its results:

B1: H2M1681N (antibody, V domains shown)
VH: EVQLLESGGGLVQPGKSLRLSCAVSGFTFSTYGMNWVRQAPGKGLEWVSSISGTGRTTYHADSVQGRFTVSRDNSKNILYLQMNSLRADDTAVYFCTKERGDYYYGVFDYWGQGTLVTVSS
VL: DIQMTQSPSTLSASVGDRVTITCRASQTISSWLAWYQQTPEKAPKLLIYAASNLQSGVPSRFSGSGSGTEFTLTISSLQPDDFATYYCQQYHRSWTFGQGTKVEIT
IC50 [1]: 0.037 nM
IC50 [2]: 0.013 nM
IC50 [3]: 0.061 nM
IC50 [4]: 0.149 nM
binding result [5]: no binding (tested: up to 100 nM)
IC50 [6]: 0.234 nM
Kd [7]: 1.5 nM
t1/2 [7]: 14 min
binding result [8]: no binding (tested: up to 100 nM)
Kd [9]: 0.546 nM
t1/2 [9]: 54 min

B2: H2M1817N (antibody, V domains shown)
VH: QVQLQQWGAGLLKPSETLSLTCAVSGGSFSDYFWTWIRQPPGKGLEWIGEISHSGRTNYNPSLKSRVTISVDTSMSQFSLKMTSVTAADSAVYYCARDYPNWVFDYWGQGTLVTVSS
VL: EIELTQSPGTLSLSPGEGATLSCRASQSVFNSYLAWYQQKPGQAPRLLIYGASRRATGIPDRFSGSGSGTDFTLTISRLEPGDFAVYFCQQYGNSPLTFGGGTKVEIK
notes: chimeric hybridoma antibody: human variable regions, mouse constant regions (mouse Fc)
IC50 [1]: 0.154 nM
IC50 [2]: 0.89 nM
IC50 [3]: 0.137 nM
IC50 [4]: 0.776 nM
binding result [5]: no binding (tested: up to 100 nM)
IC50 [10]: 0.249 nM
IC50 [11]: 0.666 nM
Kd [7]: 1 nM
t1/2 [7]: 30 min
Kd [8]: 0.451 nM
t1/2 [8]: 57 min
Kd [9]: 1.25 nM
t1/2 [9]: 37 min

B3: H2M1805N (antibody, V domains shown)
VH: QVQLQQWGAGLLKPSETLSLTCAVYGGSFTGFYWSWIRQPPGKGLEWIGEINHRGNTNYNPSLKSRVTMSVDTSKNQFSLNMISVTAADTAMYFCASPFYDFWSGSDYWGQGTLVTVSS
VL: DIMLTQTPLTSPVTLGQPASISCKSSQSLVHSDGNTYLSWLQQRPGQPPRLLFYKISNRFSGVPDRFSGSGAGTDFTLKISRVEAEDVGVYYCMQATQFPLTFGGGTKVEIK
notes: as for B2
IC50 [1]: 0.006 nM
IC50 [2]: 0.012 nM
IC50 [3]: 0.013 nM
IC50 [4]: 1.14 nM
binding result [5]: no binding (tested: up to 100 nM)
IC50 [6]: 2.24 nM
Kd [7]: 0.439 nM
t1/2 [7]: 36 min
binding result [8]: no binding (tested: up to 100 nM)
Kd [9]: 0.345 nM
t1/2 [9]: 67 min
